Assay: soluble on expression in E. coli; label from the status in PepcDB or PDB records

| Sequence | soluble on expression in E. coli |
| --- | --- |
| MPRHFHVALLILVLCGAERARGALRVQLQDYDKNSWRSVLRRVAPEWVLEEFADVKVLSAAENGFQLPKSGLAQIEINKSGRKTVTANTPTDALNAINTYLRTECLSQVSWSNSSFSSGCRKRTSDFINFESKQIRYFGNMCTFSYSFAWWEWPQWERFIDWIALNGFNTVLMPLGQEIIWRDIFMGLGVQRDELDSYFTSQAYLAWHRMGNLKAYGGGLSDAQMLNDHNLAKRIIDRLLELGITPILPTFAGFVPDHLETLFPASKFNRLPRWNNFTSETSCMLSVSPFDPLFQKIGSTFLRHQKKMFGGDVTNMYSADPFNEILPSESAKFDAKFVKQTAQAIMNSCKKVDKNCVWVLQSWSFTYDQWPAWAIKSFLSAIPVGNLLILDLYAEVVPAWQMTSSFQGHHFVWCLLHNFGGSRELRGNLQKIDKGYQLALMKAGSNLVGAGLSMEAIDQNYVVYQFMIDRMWSPEPLPLNNWLKAYSESRYSADFKVAQKFWTLLAGTFYNQPEKWGTPRFSVFLYHRPGFGRKIEYWFPVEETFSRFRELLPALVHVLGEHPLFREDLNDVMREMTQFEMGNEAALSMSEAFLMEDKQQVGASCEMLMEMFQKLESYSNRDVRQWIENAKSIAPTSEERQVFPVTAGDILTVWGPTGQNLDYAHREWAGLMSGYYGRRWQYFCDWILEHDDFNHTEFSISVFRDVERPFSISNI | not soluble |
| MPRKLLEERSTGSATKWLREEEKIEKKSRADQLKIKFMQTRDNSDINSIFSEPPSEFSVLCDDDDCDKGSVVSSTLTTSIRKTFSSFRFDENQRKKGTRKRRSSEKGRICRRKVHIILARNMLRKENELYKKDAEYCQTPRAVADGCSFSTLPTI | not soluble |
| MPRLYLGKIPYNARERDVERFLKGYGKINNISMKYGFAFVDFEDSRDAEDACHDLDGKTMEGSSMRLVVEMARGKPRGNDRHGSRSPRRRSRSPRRRSRTPPRRRSRSRDRKRSRRSRSRSSSRSRSPVRESRRRSESRSPSPKRDLKREASRSRSPLPAKDRSRTRSGSPPKNGGDRKRSVSRGRSHSRDGSNRSVSRSPSPGSPKD | not soluble |
| MPRPDNVPVYTMRQLAAFVAVAETGTISGAAERMHLSQSALSAAVTDLEKALKAQLCVRRRARGVQLTPTGEAVLSRARALLQQAGELQSDASGEGGVVAGPIAVGCYPALGPTILPSMLYAFTAEYPRASVEFREDTQNRLRTQLEGGELDVAIVYDLDLSPEWQTVPLMTREPMVVLGAEHPLAGVDGPVRLADLAEHPMVLLDAPPSTNHAMDVCREAGFAPRVAYRTANFETARAFVGRGLGWTLLLQRPRVDVTYEGLPVVVKPIAEPKPASVAVVVAWHQEATLSRVARAFIRFVTA | not soluble |
| MPRPPHLCTCGQLVPHGARCSCQIQRDRERKARFDQKRPSSRERGYTHEWRKARAEFLHQHPTCAFCGAPAGVVDHVIPHKGDMTLFWDRTNWQALCKPCHDRQKQMQERYNHIISLEHHHHHH | not soluble |
| MPRPSLRRGEETSGARSLHEIAPPAEKAVRKPLNLLPFRKDTPMTKDSYFHKSRAGVAGAPLFVLLHGTGGDENQFFDFGARLLPQATILSPVGDVSEHGAARFFRRTGEGVYDMVDLERATGKMADFIKANREHYQAGPVIGLGFSNGANILANVLIEQPELFDAAVLMHPLIPFEPKISPAKPTRRVLITAGERDPICPVQLTKALEESLKAQGGTVETVWHPGGHEIRSGEIDAVRGFLAAYGG | soluble |
| MPRPSTCADSGGGMMTTLTARPEAITFDPQQSALIVVDMQNAYATPGGYLDLAGFDVSTTRPVIANIQTAVTAARAAGMLIIWFQNGWDEQYVEAGGPGSPNFHKSNALKTMRKQPQLQGKLLAKGSWDYQLVDELVPQPGDIVLPKPRYSGFFNTPLDSILRSRGIRHLVFTGIATNVCVESTLRDGFFLEYFGVVLEDATHQAGPKFAQKAALFNIETFFGWVSDVETFCDALSPTSFAHIA | not soluble |
| MPRTFEEECDFIDRLTDTKFRIKKGFVPNMNVEGRFYVNNSLEQLMFDELKFSCDGQGIGGFLPAVRQIANVASLPGIVGHSIGLPDIHSGYGFSIGNIAAFDVGNPESVISPGGVGFDINCGVRLLRTNLFEENVKPLKEQLTQSLFDHIPVGVGSRGAIPMLASDLVECLEMGMDWTLREGYSWAEDKEHCEEYGRMLQADASKVSLRAKKRGLPQLGTLGAGNHYAEVQVVDEIYDKHAASTMGIDEEGQVVVMLHCGSRGLGHQVATDSLVEMEKAMARDGIVVNDKQLACARINSVEGKNYFSGMAAAANFAWVNRSCITFCVRNAFQKTFGMSADDMDMQVIYDVSHNVAKMEEHMVDGRPRQLCVHRKGATRAFPAHHPLIPVDYQLIGQPVLIGGSMGTCSYVLTGTEQGLVETFGTTCHGAGRALSRAKSRRTITWDSVIDDLKKKEISIRIASPKLIMEEAPESYKNVTDVVDTCDAAGISKKAVKLRPIAVIKG | not soluble |
| MPRTHGYAPIGKRCHGKCNWHARGRINVIGALIGKCLLTVGLFKNNIDADTFLGWTIHDLLPKLPPASIVVMDNATFRKRQDIQNVITRGGHTLEYLPAYSPDLNPIEHKWAQTKAVRKQQNQTVEQLFKIESFYVTLEHHHHHH | soluble |
| MPSAHSVKLRPLEREDLRYVHQLDNNASVMRYWFEEPYEAFVELSDLYDKHIHDQSERRFVVECDGEKAGLVELVEINHVHRRAEFQIIISPEYQGKGLATRAAKLAMDYGFTVLNLYKLYLIVDKENEKAIHIYRKLGFSVEGELMHEFFINGQYRNAIRMCIFQHQYLAEHKTPGQTLLKPTAQLEHHHHHH | not soluble |
| MPSKQDVLLLDYWDQWAEAYRINGKSINTVYRYKLFRKHLKSRFDGRKLNSIRPIEWQKFINDFAAGKDRKEKTTRKRPRERSKDIVTKMNSYVRGMVKAAINERILFSDFTFGTKTSGVRSSGKVKVLEHHHHHH | soluble |
| MPSLFKRSLLPKLRSFPLAAEAFTTLTGAAQFRRTLLEQIAQARRRIYIVALYLQQDEAGQEILDALHAAKAARPELEVVVVVDWLRAQRGLIGAGKQPGNSAWYQQMTRTHASEVPIYGVPVQTRELFGVLHLKGFIIDDCVLYSGASLNNVYLHKFDKYRFDRYHLLHNQALADSMHHLVQHGLVESRAVHRLDLPNLPTTRSLRNDIGDLRSRLKHATYDTTAGGLDKSGLSVSPLLGVGKGNPLNRVICELIAGAQRQLTICTPYFNLPLPVTREINRALERGVKIDIIVGDKTANDFYIPPSEPFKVIAALPYLYEISLRRFAKRHQKVIDNGQLNLHLWRDGDNTYHLKGMWVDERYTLLTGNNLNPRAFRLDLENALLLDDPKGELLQARNAEQAEIYRHTRRIEHFQYLDSLVDYPEAVGKFLRRVSRVRIERLLYRMLLEHHHHHH | not soluble |
| MPSLLLLGAGHAHMTVMEAIPRLIERGHSVTVVGPGERHYYSGMGPGMLGGHYSPEDISFPVRQMVTQRGGTFITARATRIDPQRKHVVLDSGQELAYDVCSCNTGSHVPSSIVDGDATDVFPVKPIENLLAGRESIRRRASRGPVRIAVVGGGPAALEVAGNAAAALTQTGAQGNVAMYAGSSFLRRFPARVRELARKELQKARVKLHEGAYASAVHTGEVVLDNGERYEADIIFTALGVVPSPLFAASGLPVGKDGGLAVDAHLRCTEYDDIFGGGDCIWFTPQPLAKVGVYAVRQNPVLLHNLAARLEGGPLLTFSPGGEYLLIFNTGSGRGILHKAGFTFAGRLAFMVKDWIDRRFIRRFQPHLEHHHHHH | not soluble |
| MPSMLERISKNLVKEIGSKDLTPVKYLLSATKLRQFVILRKKKDSRSSFWEQSDYVPVEFSLNDILEPSSSVLETVVTGPFHFSDIMIQKHKADMGVNVGIEVSVSGEASVDHGCSLEFQIVTIPSPNLEDFQKRKLLDPEPSFLKECRRRGDNLYVVTEAVELINNTVLYDSSSVNILGKIALWITYGKGQGQGESLRVKKKALTLQKGMVMAYKRKQLVIKEKAILISDDDEQRTFQDEYEISEMVGYCAARSEGLLPSFHTISPTLFNASSNDMKLKPELFLTQQFLSGHLPKYEQVHILPVGRIEEPFWQNFKHLQEEVFQKIKTLAQLSKDVQDVMFYSILAMLRDRGALQDLMNMLELDSSGHLDGPGGAILKKLQQDSNHAWFNPKDPILYLLEAIMVLSDFQHDLLACSMEKRILLQQQELVRSILEPNFRYPWSIPFTLKPELLAPLQSEGLAITYGLLEECGLRTELDNPRSTWDVEAKMPLSALYGTLSLLQQLAEA | soluble |
| MPSNPTRKGRVVVGMSGGVDSSVTAWLLKQQGYEVVGLFMKNWEDDDDSEYCSTRQDLLDAASVADLVGVEFEYVNFAAEYKDRVFAEFLREYSAGRTPNPDVLCNAEIKFKAFLDHAMALGAEHIATGHYARVRTVETPAGPRHQLLKALDDTKDQSYFLHRLNQVQLARTLFPLGELRKTEVRRIAHEIGLHNAAKKDSTGICFIGERPFREFLNRYLPSEPGPILTPEGQRVGTHHGLSFYTLGQRKGLGVGGVKGRQRDDGTAEAWYAARKDLARNVLYVVQGHDHPWLLSAQLQAQDASWIAGEPPAAGAYGAKTRYRQADAACRLDQAGGERFALAFEQAQWAVTPGQSAVLYDGEVCLGGGIIILEHHHHHH | soluble |
| MPSNSTTGAQKCSRKVHSLKFKLEAIEYASKFSKTKAARDLKVSRQCIQDWVAQKTKIESQLKSTNKTAPKRLEGGGRPVQRETVDESVLRWFRDQREKKFRVSRNLIRQKAKEICGEDDFKASTGWLQKFMRRHHLSTRRATTTCQKEPDEFAKKIVDYVLFVEKMRLQNKYTDTHIFAADETAVYLDFSNSLTLNEKGAREVGKTNTLFFYFSHPMMKRCLILFQVPVKTTGHEKMHVTVLLTARADGYKCRPYVLLPRTRPDKEIAARFKNSLQLSWCNRTFFNDEVTEDYLNTIIGPPFFGKRLLAWDAFRCHISDATKRVLKNLKVDTAVVPGGCTKFVQAPDVYWNSPFKASIRRSYEDWMVHGQKSFTKSNNMRPPSMLQYLEWIENAWNDLPKDLILKSFKGCALTIATDGSEDNQVHCFAPNGSIPSGLDLLNSTRIENSLVDLVQDIGIDESQEEGNESDNSIISVG | not soluble |
| MPSTVEKMETEEYGKPDPNRLTTKLFAEYDALHEKQQNGMDEKKTMELLEPSEVFEIYSPATMEIISIAKEEGDILSDQSLKFLNEALRYTVVPRGYSPQGVDARTTVKNVATITKDLVDIGKIVFEKFPKYLQFFGPFGSLLKDILDMTKPEKKDPVLEELGNLKSQLESLSQKMVVQFDELKAFMVEKDFYNNYAHKASLLFDYMIDCVATIDTKTKERFEECYNEIKPERYVRDMLIKLESDVTNPLKVSMAGDELTSKATFQKWKDVLNSTLSQFLLLECFAMGFLHPKDESDSKKIIEKITYYTTLVEQWEKHYLNDRPYWPKLKKYVERIQGEGSFDKDEDMATELKKGLDSILTEDNFYLYVFEKNVHYEIHVVKPEMVFVSTNRGKFSVIISRAFEHSEYTCGQYWKKLDNIMYRRIERSIWYALETHMKEFVQWAVASYAKNDFKGCSYFLAFSSRNVAVRWTRKHGAEKGPGFINWDGQLTVFNVTTGTWNMLYMVGE | not soluble |
| MPSVISTDVLIVGAGVAGLWLNARLRRQGFSTVLVESASLGGGQSLKSQGIIHGGAKYALHGALSGASEAIADMPRRWREALDGKGELDLSGVRLLSEAHYLWSPGTIAGNLTSFFASKAVRGRVDQVKGEQLPPALQNPKFKGKVYRLAELVVDVPSLIKRLAELAEDSLLAGQKIEPLYEADELIGLRVDGRDIHAQRIVLSAGGGTADLLNALGVSQPQMQRRPLHMVLVKGPTLKPLFAHCLGGGPKPRITVTTHPAADGQCVWYLGGDLAEADGVAREPDAQIAVARKELEALLPWVDLSQAQWATLRVDRAEPAQSGLVRPDNAFLDSQRRLMVGWPTKLALAPDFADRVLSHLSKDDIHPTPQAPLVDVPRPPLAIPVWDELLPLEHHHHHH | not soluble |

From the DeepSol protein solubility set
